First the molecules themselves.
T1: human amylin 3(a) receptor (human calcitonin receptor co-expressed with RAMP-3) (human, UniProt P30988 25-474; O60896 24-148, limits assumed)
T1 sequence (looked up) 1: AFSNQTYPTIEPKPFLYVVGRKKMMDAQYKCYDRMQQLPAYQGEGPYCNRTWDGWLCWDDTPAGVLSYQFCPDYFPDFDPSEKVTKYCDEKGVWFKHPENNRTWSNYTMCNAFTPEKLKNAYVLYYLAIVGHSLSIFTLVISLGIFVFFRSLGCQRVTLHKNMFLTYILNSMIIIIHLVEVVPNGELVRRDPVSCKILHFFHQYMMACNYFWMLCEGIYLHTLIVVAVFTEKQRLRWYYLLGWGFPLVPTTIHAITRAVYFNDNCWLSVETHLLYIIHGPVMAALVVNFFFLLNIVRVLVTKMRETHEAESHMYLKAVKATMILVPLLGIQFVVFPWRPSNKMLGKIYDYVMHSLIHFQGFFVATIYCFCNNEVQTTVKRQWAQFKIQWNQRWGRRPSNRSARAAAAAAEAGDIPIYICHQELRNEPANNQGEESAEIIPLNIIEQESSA
T1 sequence (looked up) 2: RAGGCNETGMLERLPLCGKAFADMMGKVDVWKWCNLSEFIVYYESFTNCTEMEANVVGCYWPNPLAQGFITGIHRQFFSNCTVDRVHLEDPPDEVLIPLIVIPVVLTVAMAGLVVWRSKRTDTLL

T2: human calcitonin receptor (human, UniProt P30988 25-474)
T2 sequence (looked up): T1 sequence (looked up) 1

T3: human calcitonin receptor on BHK570/CRE-luc cells (human, UniProt P30988 25-474)
T3 sequence (looked up): T1 sequence (looked up) 1

T4: human amylin 3(a) receptor (human calcitonin receptor co-expressed with RAMP-3) on BHK570/CRE-luc cells (human, UniProt P30988 25-474; O60896 24-148)
T4 sequence (looked up) 1: T1 sequence (looked up) 1
T4 sequence (looked up) 2: T1 sequence (looked up) 2

B1: [N-terminal(C18 diacid), 5I, 9I, 10I]mimylin (peptide)
peptide: {C18 diacid}-EASEISTAIIGRLSAELHELATLPRTETGPESP-NH2
SMILES: CC[C@H](C)[C@H](NC(=O)[C@H](C)NC(=O)[C@@H](NC(=O)[C@H](CO)NC(=O)[C@@H](NC(=O)[C@H](CCC(=O)O)NC(=O)[C@H](CO)NC(=O)[C@H](C)NC(=O)[C@H](CCC(=O)O)NC(=O)CCCCCCCCCCCCCCCCC(=O)O)[C@@H](C)CC)[C@@H](C)O)C(=O)N[C@H](C(=O)NCC(=O)N[C@@H](CCCNC(=N)N)C(=O)N[C@@H](CC(C)C)C(=O)N[C@@H](CO)C(=O)N[C@@H](C)C(=O)N[C@@H](CCC(=O)O)C(=O)N[C@@H](CC(C)C)C(=O)N[C@@H](Cc1c[nH]cn1)C(=O)N[C@@H](CCC(=O)O)C(=O)N[C@@H](CC(C)C)C(=O)N[C@@H](C)C(=O)N[C@H](C(=O)N[C@@H](CC(C)C)C(=O)N1CCC[C@H]1C(=O)N[C@@H](CCCNC(=N)N)C(=O)N[C@H](C(=O)N[C@@H](CCC(=O)O)C(=O)N[C@H](C(=O)NCC(=O)N1CCC[C@H]1C(=O)N[C@@H](CCC(=O)O)C(=O)N[C@@H](CO)C(=O)N1CCC[C@H]1C(N)=O)[C@@H](C)O)[C@@H](C)O)[C@@H](C)O)[C@@H](C)CC
B2: [N-terminal(C18 diacid), 9V, 12K, 25K]mimylin (peptide)
peptide: {C18 diacid}-EASELSTAVLGKLSAELHELATLPKTETGPESP-NH2
SMILES: CC(C)C[C@H](NC(=O)[C@H](CCC(=O)O)NC(=O)[C@H](Cc1c[nH]cn1)NC(=O)[C@H](CC(C)C)NC(=O)[C@H](CCC(=O)O)NC(=O)[C@H](C)NC(=O)[C@H](CO)NC(=O)[C@H](CC(C)C)NC(=O)[C@H](CCCCN)NC(=O)CNC(=O)[C@H](CC(C)C)NC(=O)[C@@H](NC(=O)[C@H](C)NC(=O)[C@@H](NC(=O)[C@H](CO)NC(=O)[C@H](CC(C)C)NC(=O)[C@H](CCC(=O)O)NC(=O)[C@H](CO)NC(=O)[C@H](C)NC(=O)[C@H](CCC(=O)O)NC(=O)CCCCCCCCCCCCCCCCC(=O)O)[C@@H](C)O)C(C)C)C(=O)N[C@@H](C)C(=O)N[C@H](C(=O)N[C@@H](CC(C)C)C(=O)N1CCC[C@H]1C(=O)N[C@@H](CCCCN)C(=O)N[C@H](C(=O)N[C@@H](CCC(=O)O)C(=O)N[C@H](C(=O)NCC(=O)N1CCC[C@H]1C(=O)N[C@@H](CCC(=O)O)C(=O)N[C@@H](CO)C(=O)N1CCC[C@H]1C(N)=O)[C@@H](C)O)[C@@H](C)O)[C@@H](C)O
B3: [N-terminal(C18 diacid), 3P, 4P, 9V]mimylin (peptide)
peptide: {C18 diacid}-EAPPLSTAVLGRLSAELHELATLPRTETGPESP-NH2
SMILES: CC(C)C[C@H](NC(=O)[C@H](CCC(=O)O)NC(=O)[C@H](Cc1c[nH]cn1)NC(=O)[C@H](CC(C)C)NC(=O)[C@H](CCC(=O)O)NC(=O)[C@H](C)NC(=O)[C@H](CO)NC(=O)[C@H](CC(C)C)NC(=O)[C@H](CCCNC(=N)N)NC(=O)CNC(=O)[C@H](CC(C)C)NC(=O)[C@@H](NC(=O)[C@H](C)NC(=O)[C@@H](NC(=O)[C@H](CO)NC(=O)[C@H](CC(C)C)NC(=O)[C@@H]1CCCN1C(=O)[C@@H]1CCCN1C(=O)[C@H](C)NC(=O)[C@H](CCC(=O)O)NC(=O)CCCCCCCCCCCCCCCCC(=O)O)[C@@H](C)O)C(C)C)C(=O)N[C@@H](C)C(=O)N[C@H](C(=O)N[C@@H](CC(C)C)C(=O)N1CCC[C@H]1C(=O)N[C@@H](CCCNC(=N)N)C(=O)N[C@H](C(=O)N[C@@H](CCC(=O)O)C(=O)N[C@H](C(=O)NCC(=O)N1CCC[C@H]1C(=O)N[C@@H](CCC(=O)O)C(=O)N[C@@H](CO)C(=O)N1CCC[C@H]1C(N)=O)[C@@H](C)O)[C@@H](C)O)[C@@H](C)O
B4: [N-terminal(C18 diacid-gGlu), des1, 30S]mimylin (peptide)
peptide: {C18 diacid-γGlu}-ASELSTAALGRLSAELHELATLPRTETGSESP-NH2
SMILES: CC(C)C[C@H](NC(=O)[C@H](C)NC(=O)[C@H](C)NC(=O)[C@@H](NC(=O)[C@H](CO)NC(=O)[C@H](CC(C)C)NC(=O)[C@H](CCC(=O)O)NC(=O)[C@H](CO)NC(=O)[C@H](C)NC(=O)CC[C@H](NC(=O)CCCCCCCCCCCCCCCCC(=O)O)C(=O)O)[C@@H](C)O)C(=O)NCC(=O)N[C@@H](CCCNC(=N)N)C(=O)N[C@@H](CC(C)C)C(=O)N[C@@H](CO)C(=O)N[C@@H](C)C(=O)N[C@@H](CCC(=O)O)C(=O)N[C@@H](CC(C)C)C(=O)N[C@@H](Cc1c[nH]cn1)C(=O)N[C@@H](CCC(=O)O)C(=O)N[C@@H](CC(C)C)C(=O)N[C@@H](C)C(=O)N[C@H](C(=O)N[C@@H](CC(C)C)C(=O)N1CCC[C@H]1C(=O)N[C@@H](CCCNC(=N)N)C(=O)N[C@H](C(=O)N[C@@H](CCC(=O)O)C(=O)N[C@H](C(=O)NCC(=O)N[C@@H](CO)C(=O)N[C@@H](CCC(=O)O)C(=O)N[C@@H](CO)C(=O)N1CCC[C@H]1C(N)=O)[C@@H](C)O)[C@@H](C)O)[C@@H](C)O

Numbered stars: 1 amine (or outer) side, 2 acyl side, 3 side chain; on linkers, the order of the positions; unused ones are H or OH. * marks the point of attachment. C20 diacid = O=C(O)CCCCCCCCCCCCCCCCCCC(=O)*; C18 diacid = O=C(O)CCCCCCCCCCCCCCCCC(=O)*; C16 diacid = O=C(O)CCCCCCCCCCCCCCC(=O)*; γGlu = O=C(O)[C@H](CCC(=O)[*:2])N[*:1]; AEEA = NCCOCCOCC(=O)O

The first assay has as its target T1, human amylin 3(a) receptor (human …). The assay is described as follows: cell-based or functional assay.
Consider B1, for which the “hAmylin-R funct. EC50 (pM)” value came to 10 pM.
The same measure, in the same setting: the value for {C20 diacid-γGlu-AEEA-AEEA-AEEA-AEEA}-ASELSTAALGRLSAELHELATLPRTETGSGSP-NH2 [[N-terminal(C20 diacid-gGlu-4xOEG), des1, 30S, 31G]mimylin] was 24 pM; that for {C18 diacid-γGlu}-ASELSTAALGRLSAELHELATLPRTETGSGSP-NH2 [[N-terminal(C18 diacid-gGlu), des1, 30S, 31G]mimylin] was 16 pM; that for B2 was 16 pM.
Take {C18 diacid}-ASELSTAALGRLSAELHELATLPRTETGSGSP-NH2 [[N-terminal(C18 diacid), des1, 30S, 31G]mimylin]: the “hAmylin-R funct. EC50 (pM)” value was found to be 18 pM.
Consider {C20 diacid-γGlu-AEEA-AEEA-AEEA-AEEA-AEEA}-ASELSTAALGRLSAELHELATLPRTETGSGSP-NH2 [[N-terminal(C20 diacid-gGlu-5xOEG), des1, 30S, 31G]mimylin], for which the “hAmylin-R funct. EC50 (pM)” value is 15 pM.
On the same count and under the same terms, the value for {C20 diacid-γGlu-AEEA-AEEA}-ASELSTAALGRLSAELHELATLPRTETGSGSP-NH2 [[N-terminal(C20 diacid-gGlu-2xOEG), des1, 30S, 31G]mimylin] was 17 pM; that for {C20 diacid-γGlu-AEEA}-ASELSTAALGRLSAELHELATLPRTETGSGSP-NH2 [[N-terminal(C20 diacid-gGlu-OEG), des1, 30S, 31G]mimylin] was 27 pM; that for {C20 diacid-γGlu-AEEA-AEEA-AEEA}-ASELSTAALGRLSAELHELATLPRTETGSGSP-NH2 [[N-terminal(C20 diacid-gGlu-3xOEG), des1, 30S, 31G]mimylin] was 18 pM.
For {C16 diacid-γGlu}-ASELSTAALGRLSAELHELATLPRTETGSGSP-NH2 [[N-terminal(C16 diacid-gGlu), des1, 30S, 31G]mimylin], the “hAmylin-R funct. EC50 (pM)” value was 18 pM.
The same measure, in the same setting: the value for B3 was 12 pM.
Regarding {C20 diacid-γGlu}-ASELSTAALGRLSAELHELATLPRTETGSGSP-NH2 [[N-terminal(C20 diacid-gGlu), des1, 30S, 31G]mimylin], the “hAmylin-R funct. EC50 (pM)” value was 13 pM.

A further assay has as its target T2, human calcitonin receptor. In words: cell-based or functional assay.
For B1, the “hCTR funct. EC50 (pM)” value is 5 pM.
On the same count and under the same terms, the result for {C20 diacid-γGlu-AEEA-AEEA-AEEA-AEEA}-ASELSTAALGRLSAELHELATLPRTETGSGSP-NH2 [[N-terminal(C20 diacid-gGlu-4xOEG), des1, 30S, 31G]mimylin] reads 13 pM; that for {C18 diacid-γGlu}-ASELSTAALGRLSAELHELATLPRTETGSGSP-NH2 [[N-terminal(C18 diacid-gGlu), des1, 30S, 31G]mimylin], 17 pM; that for B2, 8 pM.
Take {C18 diacid}-ASELSTAALGRLSAELHELATLPRTETGSGSP-NH2 [[N-terminal(C18 diacid), des1, 30S, 31G]mimylin]: the “hCTR funct. EC50 (pM)” value was 17 pM.
Regarding {C20 diacid-γGlu-AEEA-AEEA-AEEA-AEEA-AEEA}-ASELSTAALGRLSAELHELATLPRTETGSGSP-NH2 [[N-terminal(C20 diacid-gGlu-5xOEG), des1, 30S, 31G]mimylin], the “hCTR funct. EC50 (pM)” value stood at 10 pM.
On the same count and under the same terms, the result for {C20 diacid-γGlu-AEEA-AEEA}-ASELSTAALGRLSAELHELATLPRTETGSGSP-NH2 [[N-terminal(C20 diacid-gGlu-2xOEG), des1, 30S, 31G]mimylin] reads 12 pM; that for {C20 diacid-γGlu-AEEA}-ASELSTAALGRLSAELHELATLPRTETGSGSP-NH2 [[N-terminal(C20 diacid-gGlu-OEG), des1, 30S, 31G]mimylin], 18 pM.
Consider {C20 diacid-γGlu-AEEA-AEEA-AEEA}-ASELSTAALGRLSAELHELATLPRTETGSGSP-NH2 [[N-terminal(C20 diacid-gGlu-3xOEG), des1, 30S, 31G]mimylin], for which the “hCTR funct. EC50 (pM)” value worked out at 11 pM.
Take {C16 diacid-γGlu}-ASELSTAALGRLSAELHELATLPRTETGSGSP-NH2 [[N-terminal(C16 diacid-gGlu), des1, 30S, 31G]mimylin]: the “hCTR funct. EC50 (pM)” value was determined as 15 pM.
For the molecule B3, the “hCTR funct. EC50 (pM)” value came to 6 pM.
The same measure, in the same setting: the value for {C20 diacid-γGlu}-ASELSTAALGRLSAELHELATLPRTETGSGSP-NH2 [[N-terminal(C20 diacid-gGlu), des1, 30S, 31G]mimylin] was 14 pM.

In another assay the target is T3, human calcitonin receptor on …. In words: cell-based or functional assay.
On to {C20 diacid}-EASELSTAALGRLSAELHELATLPRTETGSGSP-NH2 [[N-terminal(C20 diacid), 30S, 31G]mimylin], for which the “hCTR funct. EC50 (pM), tested with HSA” value came to 26 pM.
Still for that read-out and setting: the value for B4 was 9 pM.
Same read-out and setting: the value for {C18 diacid}-EASELSTAALGRLSAELHELATLPRTETGSGSP-NH2 [[N-terminal(C18 diacid), 30S, 31G]mimylin] was 19 pM.

A further assay deals with T4, human amylin 3(a) receptor (human …). The assay is described as follows: cell-based or functional assay.
In the case of {C20 diacid}-EASELSTAALGRLSAELHELATLPRTETGSGSP-NH2 [[N-terminal(C20 diacid), 30S, 31G]mimylin], the “hAmylin-R funct. EC50 (pM), tested with HSA” value turned out to be 61 pM.
Same read-out and setting: the result for B4 reads 26 pM; that for {C18 diacid}-EASELSTAALGRLSAELHELATLPRTETGSGSP-NH2 [[N-terminal(C18 diacid), 30S, 31G]mimylin], 39 pM.

Values taken from US20160272683A1 (Novo Nordisk, published 2016).
